This assay in a line: Esterase activity: hydrolysis of an activated ester substrate (Table III). The format is biochemical. The note with it: ratio of the apparent second order rate constants (kcat/KM), Sbz versus pNA substrate. The procedure: Table III: Kinetic constants for the hydrolysis of an amide substrate (s-Ala-Ala-Pro-Phe-pNA) and for an activated ester substrate (s-Ala-Ala-Pro-Phe-Sbz). The ratio of esterase to amidase activities is the ratio of the apparent second order rate constants (kcat/KM). The aminolysis to hydrolysis ratio was investigated using the thiobenzyl ester substrate with 3.6 mM of the dipeptide Ala-Phe-amide as the nucleophile.
Kinetic Assays. The esterase and amidase activities were obtained from initial rate measurements using a Kontron Uvikon 860 spectrophotometer. The assay for esterase activity utilized the substrate s-Ala-Ala-Pro-Phe-Sbz at (25°±0.2° C.) in 100 mM Tris-HCl (pH 8.60), 4% (v/v) dimethylsulfoxide, 0.005% (v/v) Tween 80. With the non-cysteine containing proteases, DTNB (Ellman (1959), Arch. Biochem. Biophys., 82, 70-77) was added to a concentration of 37.5 μM to visualize the release of thiolbenzoate upon hydrolysis of the substrate. […] The amidase activities were measured under identical conditions by following the increase in absorbance at 412 nm upon hydrolysis of p-nitroanilide from s-Ala-Ala-Pro-Phe-pNA.

B1: wild type: wild type subtilisin (BPN') from Bacillus amyloliquefaciens (protein, UniProt P00782 108-382, looked up)
Subtilisin BPN': AQSVPYGVSQIKAPALHSQGYTGSNVKVAVIDSGIDSSHPDLKVAGGASMVPSETNPFQDNNSHGTHVAGTVAALNNSIGVLGVAPSASLYAVKVLGADGSGQYSWIINGIEWAIANNMDVINMSLGGPSGSAALKAAVDKAVASGVVVVAAAGNEGTSGSSSTVGYPGKYPSVIAVGAVDSSNQRASFSSVGPELDVMAPGVSIQSTLPGNKYGAYNGTSMASPHVAGAAALILSKHPNWTNTQVRSSLENTTTKLGDSFYYGKGLINVQAAAQ
As for B1, the esterase/amidase is 4.8.

The values above are taken from patent publication US5403737A, “Serine protease variants having peptide ligase activity” (priority 1993, dated 1995).
